Test results taken from paper PMC5137110, “Relocation of active site carboxylates in major facilitator superfamily multidrug transporter LmrP reveals plasticity in proton interactions” (Scientific Reports, 2016).

Columns and labels:
LmrP = target: T1, LmrP (Lactococcus lactis, UniProt Q48658); assay: fluorescence anisotropy, purified protein titrated into propidium; format: binding; settings: 50 mM KPi pH 7.0, 100 mM NaCl, 0.05% DDM; 0.2 or 1 μM propidium
T1 construct: full length, 408 residues; His6-tagged (His10-tagged for T331E); plasmid pNZ8084; expressed in L. lactis NZ9000 delta-lmrA delta-lmrCD

[1] = tested on: CC[N+](C)(CC)CCC[n+]1c(-c2ccccc2)c2cc(N)ccc2c2ccc(N)cc21; assay: cells, lysate or membranes; format: cell-based, Lactococcus lactis; settings: 50 mM KPi pH 7.0, 5 mM MgSO4, corrected for influx in cells without LmrP
[2] = tested on: CC[n+]1c(-c2ccccc2)c2cc(N)ccc2c2ccc(N)cc21; assay: cells, lysate or membranes; format: cell-based, Lactococcus lactis; settings: 50 mM KPi pH 7.0, 5 mM MgSO4, corrected for influx in cells without LmrP

Row | Compound | fluorescence anisotropy, purified protein titrated into propidium (LmrP) | Km [1] [µM] | Km [2] [µM]
1 | CC[N+](C)(CC)CCC[n+]1c(-c2ccccc2)c2cc(N)ccc2c2ccc(N)cc21 [propidium] | propidium binding to purified T331E LmrP and WT LmrP was measured by fluorescence anisotropy | – | –
2 | LmrP (Lactococcus lactis) | – | 1.3 ± 0.2 | 7.7 ± 5.1
